The experiment has as its target T1, fibrinogen (Homo sapiens, UniProt P02671).
T1 construct: purchased Enzyme Research Laboratories (South Bend, Ind.)
T1 sequence (P02671 20-644 isoform P02671-2 limits assumed): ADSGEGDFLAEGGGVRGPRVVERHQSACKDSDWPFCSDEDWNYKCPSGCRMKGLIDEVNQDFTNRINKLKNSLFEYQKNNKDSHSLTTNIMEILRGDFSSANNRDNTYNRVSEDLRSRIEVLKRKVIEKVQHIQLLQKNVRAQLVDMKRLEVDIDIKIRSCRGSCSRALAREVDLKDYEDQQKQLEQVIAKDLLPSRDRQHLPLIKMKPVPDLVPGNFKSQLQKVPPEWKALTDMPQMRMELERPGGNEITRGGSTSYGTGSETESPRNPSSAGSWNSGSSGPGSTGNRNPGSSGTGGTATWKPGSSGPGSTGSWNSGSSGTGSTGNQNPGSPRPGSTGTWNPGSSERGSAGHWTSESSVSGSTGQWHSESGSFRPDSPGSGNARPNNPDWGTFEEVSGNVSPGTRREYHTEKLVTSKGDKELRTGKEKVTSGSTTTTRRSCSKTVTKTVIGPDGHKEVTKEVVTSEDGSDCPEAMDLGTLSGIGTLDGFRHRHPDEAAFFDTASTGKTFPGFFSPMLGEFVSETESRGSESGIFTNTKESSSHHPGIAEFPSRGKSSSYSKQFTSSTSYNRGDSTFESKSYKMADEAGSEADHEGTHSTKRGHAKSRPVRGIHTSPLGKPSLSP
T1 sequence (P02675 31-491 partner): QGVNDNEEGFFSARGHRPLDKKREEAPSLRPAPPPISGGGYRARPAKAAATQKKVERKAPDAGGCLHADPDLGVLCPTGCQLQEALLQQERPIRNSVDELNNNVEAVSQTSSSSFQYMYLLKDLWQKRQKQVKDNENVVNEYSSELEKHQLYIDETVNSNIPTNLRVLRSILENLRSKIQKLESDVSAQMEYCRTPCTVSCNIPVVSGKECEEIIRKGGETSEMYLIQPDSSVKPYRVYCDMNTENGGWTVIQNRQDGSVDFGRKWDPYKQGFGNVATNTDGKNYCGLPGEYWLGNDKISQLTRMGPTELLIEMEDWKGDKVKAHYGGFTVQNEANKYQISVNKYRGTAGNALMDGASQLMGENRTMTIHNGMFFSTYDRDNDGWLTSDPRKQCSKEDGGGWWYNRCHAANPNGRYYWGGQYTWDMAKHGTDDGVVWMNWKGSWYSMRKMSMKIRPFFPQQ
T1 sequence (P02679 27-437 isoform P02679-2 partner limits assumed): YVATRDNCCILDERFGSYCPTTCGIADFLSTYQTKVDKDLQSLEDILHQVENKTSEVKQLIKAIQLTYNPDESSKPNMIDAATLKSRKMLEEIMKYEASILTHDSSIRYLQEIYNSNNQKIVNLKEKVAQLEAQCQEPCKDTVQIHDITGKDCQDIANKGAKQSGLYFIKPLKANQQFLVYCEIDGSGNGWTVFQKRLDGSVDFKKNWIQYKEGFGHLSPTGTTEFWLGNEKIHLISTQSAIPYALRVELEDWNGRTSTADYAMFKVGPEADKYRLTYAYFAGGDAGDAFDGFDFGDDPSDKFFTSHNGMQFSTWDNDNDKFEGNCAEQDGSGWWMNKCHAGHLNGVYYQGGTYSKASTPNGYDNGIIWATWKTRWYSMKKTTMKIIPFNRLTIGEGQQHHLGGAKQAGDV
The experiment can be described thus: Factor XIIIa-mediated incorporation of FITC-labeled thymosin β4 into fibrinogen (spectrophotometric). The format is biochemical. Here is the method:
Reactions of incorporation of FITC-labeled and unlabeled thymosin β4 into fibrinogen and fibrin were performed in Eppendorf tubes containing a mixture of fibrinogen at 3 mg/mL (9 μM) and thymosin β4 or FITC-labeled thymosin β4 at […] (30 μM) in 100 μL TBS with 2.5 mM CaCl2. The reactions were initiated by addition of FXIIIa(Ca) or FXIIIa(Thr) to final concentration of 30 μg/mL. The final concentration of thrombin in the FXIIIa(Thr)-containing mixtures was made at 2.5 NIH u/mL, sufficient to rapidly form fibrin clot which was observed visually. The reactions with FITC-labeled thymosin β4 lasted for 4 hours at 37° C. in the dark and were stopped by heat inactiviation of the enzymes in boiling water for 5 min during fibrinogen and fibrin denatured and precipitated. The pellets were centrifuged and washed 3 times in TBS and then solubilized. The amounts of fibrin(ogen) and FITC-labeled thymosin β4 in the solubilized pellet were determined spectrophotomertrically using absorption molar coefficients E280,1%=15.0 and ε495=72,000 M^−1cm^−1, respectively. To prepare samples with unlabeled thymosin β4 for analysis by SDS-PAGE and Western blot the reaction mixtures at the indicated time were heat-inactivated as above and solubilized by addition of sample buffer (Invitrogen) containing SDS and reducing agent.

For the substance thymosin β4, the “degree of incorporation into fibrinogen” value (fibrinogen 9 μM, thymosin β4 30 μM, factor XIIIa, 4 hours, 37° C.) is reported as 0.2 moles per mole. Moreover, the “molar incorporation ratio of thymosin β4 to fibrinogen” value (physiological concentrations of fibrin(ogen) and factor XIII) is 0.2.
